Data reported in paper PMC8028046.

Assays:
[1] = biological target: soluble Aβ42 aggregates of different sizes (human) (UniProt P05067); assay: FCCS; time course of aggregation of 5, 10 or 20 μM unlabeled Aβ42 with 100 nM HiLyteFluor488-Aβ42 and 483 nM proSP-C BRICHOS T187R (100 nM labeled with Atto655); auto- and cross-correlation curves analysed by MEMFCS and a two-component 3D diffusion model
Aβ42 fibrils (human) = Aβ42 fibrils (human) (UniProt P05067); assay: SPR; Aβ42 fibrils immobilized; BRICHOS at 0.391-12.5 μM; global heterogeneous ligand model with two binding sites; apparent constants
Sequence of Aβ42 fibrils (human) (P05067 671-713): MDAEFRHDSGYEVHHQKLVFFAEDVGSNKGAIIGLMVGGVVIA

[2] = biological target: amyloid-beta fibrils (Homo sapiens) (UniProt P05067); assay: SPR; settings: cited from earlier work
Sequence of amyloid-beta fibrils (Homo sapiens) (P05067 672-713): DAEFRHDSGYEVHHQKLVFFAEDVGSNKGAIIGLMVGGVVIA

Sequence of proSP-C BRICHOS WT (P11686 59-197): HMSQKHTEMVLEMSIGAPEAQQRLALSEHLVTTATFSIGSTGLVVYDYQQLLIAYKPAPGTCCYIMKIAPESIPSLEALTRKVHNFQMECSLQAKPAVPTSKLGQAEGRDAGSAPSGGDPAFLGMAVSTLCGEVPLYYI
Sequence of proSP-C BRICHOS BRICHOS (P11686 91-197): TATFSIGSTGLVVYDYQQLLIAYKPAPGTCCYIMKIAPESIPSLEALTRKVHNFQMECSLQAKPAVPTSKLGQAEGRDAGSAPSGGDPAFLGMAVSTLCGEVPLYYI
Sequence of soluble Aβ42 aggregates of different sizes (human) (P05067 671-713): as the sequence (P05067 671-713) above

| Substance | stoichiometry N [1] | KD2 (binding site 2, apparent) (Aβ42 fibrils (human)) [nM] | ka2 (binding site 2) (Aβ42 fibrils (human)) [M^–1 s^–1] | kd2 (binding site 2) (Aβ42 fibrils (human)) [s^–1] | Kd [2] [µM] |
| --- | --- | --- | --- | --- | --- |
| proSP-C BRICHOS T187R-Atto655 (from UniProt P11686 59-197) (domain or fragment) | < 10 | – | – | – | – |
| proSP-C BRICHOS T187R (from UniProt P11686 59-197) (domain or fragment) | – | 25 | 6800 | 0.00017 | – |
| proSP-C BRICHOS BRICHOS (from UniProt P11686) | – | – | – | – | 0.04 |
| proSP-C BRICHOS WT (from UniProt P11686 59-197) (domain or fragment) | – | 130 | 1770 | 0.00023 | – |
